# Data published in article PMC3474958, “pH-sensitive Self-associations of the N-terminal Domain of NBCe1-A Suggest a Compact Conformation under Acidic Intracellular Conditions” (Protein and Peptide Letters, 2012).
# B1: cytoplasmic, N-terminal domain of NBCe1-A (residues 1 to 362) (domain or fragment, human, UniProt Q9Y6R1-2 1-362, looked up)
# chain: MSTENVEGKPSNLGERGRARSSTFLRVVQPMFNHSIFTSAVSPAAERIRFILGEEDDSPAPPQLFTELDELLAVDGQEMEWKETARWIKFEEKVEQGGERWSKPHVATLSLHSLFELRTCMEKGSIMLDREASSLPQLVEMIVDHQIETGLLKPELKDKVTYTLLRKHRHQTKKSNLRSLADIGKTVSSASRMFTNPDNGSPAMTHRNLTSSSLNDISDKPEKDQLKNKFMKKLPRDAEASNVLVGEVDFLDTPFIAFVRLQQAVMLGALTEVPVPTRFLFILLGPKGKAKSYHEIGRAIATLMSDEVFHDIAYKAKDRHDLIAGIDEFLDEVIVLPPGEWDPAIRIEPPKSLPSSDKRKNM
# notes: NBCe1-A, sodium-bicarbonate cotransporter variant 1A (SLC4 family), cytoplasmic N-terminal domain, residues 1 to 362; theoretical mass of the monomer 40.6 kDa, of the dimer 81.2 kDa; Exists in a concentration- and pH-dependent equilibrium of monomer, dimer and higher-order clusters; also called NtNBCe1-A; NtNBCe1
# Experiments:
# [1] = target: NtNBCe1-A (cytoplasmic N-terminal domain of the electrogenic Na/HCO3 cotransporter NBCe1-A, SLC4A4) (UniProt Q9Y6R1); test: Dynamic light scattering (DLS), batch mode; settings: pH slightly acidic (6.5 by the Figure 1 caption and Discussion); 150 mM NaCl; 50mM Tris at every pH
# NtNBCe1-A (cytoplasmic N-terminal domain of the electrogenic Na/HCO3 cotransporter NBCe1-A, SLC4A4) (UniProt Q9Y6R1), sequence (Q9Y6R1 whole entry, the tested form may be a part): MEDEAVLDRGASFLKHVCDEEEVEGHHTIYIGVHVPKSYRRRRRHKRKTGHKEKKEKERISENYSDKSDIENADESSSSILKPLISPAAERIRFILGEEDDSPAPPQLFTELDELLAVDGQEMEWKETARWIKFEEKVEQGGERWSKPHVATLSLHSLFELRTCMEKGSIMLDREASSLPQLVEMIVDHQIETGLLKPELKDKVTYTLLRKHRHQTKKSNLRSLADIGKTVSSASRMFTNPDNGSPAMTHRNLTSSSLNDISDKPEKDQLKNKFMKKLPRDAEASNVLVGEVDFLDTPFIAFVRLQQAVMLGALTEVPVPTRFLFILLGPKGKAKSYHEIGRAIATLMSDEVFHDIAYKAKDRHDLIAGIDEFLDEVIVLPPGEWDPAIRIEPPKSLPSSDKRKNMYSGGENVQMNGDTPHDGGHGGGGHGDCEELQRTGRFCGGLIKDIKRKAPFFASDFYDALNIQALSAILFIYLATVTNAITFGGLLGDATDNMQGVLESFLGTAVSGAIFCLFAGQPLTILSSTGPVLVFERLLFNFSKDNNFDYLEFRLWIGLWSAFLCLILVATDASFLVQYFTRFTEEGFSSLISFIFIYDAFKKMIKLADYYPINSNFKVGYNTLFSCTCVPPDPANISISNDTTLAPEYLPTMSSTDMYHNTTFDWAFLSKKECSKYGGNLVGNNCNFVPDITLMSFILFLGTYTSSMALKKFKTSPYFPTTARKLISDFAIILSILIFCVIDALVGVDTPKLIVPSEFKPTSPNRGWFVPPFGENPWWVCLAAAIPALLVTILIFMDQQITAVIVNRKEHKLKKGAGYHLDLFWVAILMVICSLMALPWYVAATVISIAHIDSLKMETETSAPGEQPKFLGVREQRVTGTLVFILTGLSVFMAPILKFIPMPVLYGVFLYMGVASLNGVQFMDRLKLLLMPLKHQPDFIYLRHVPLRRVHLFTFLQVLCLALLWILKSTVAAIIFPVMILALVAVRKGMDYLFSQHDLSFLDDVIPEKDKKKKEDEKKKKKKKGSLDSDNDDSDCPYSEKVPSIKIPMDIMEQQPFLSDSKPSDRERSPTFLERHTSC
# [2] = target: NtNBCe1-A (cytoplasmic N-terminal domain of the electrogenic Na/HCO3 cotransporter NBCe1-A, SLC4A4) (UniProt Q9Y6R1+Q9Y6R1); test: Dynamic light scattering (DLS), batch mode; settings: pH 7.4; 150 mM NaCl; 50mM Tris at every pH
# NtNBCe1-A (cytoplasmic N-terminal domain of the electrogenic Na/HCO3 cotransporter NBCe1-A, SLC4A4) (UniProt Q9Y6R1+Q9Y6R1), sequence (Q9Y6R1 whole entry, looked up, the tested form may be a part, one chain of several): as the sequence (Q9Y6R1 whole entry, the tested form may be a part) above
# [3] = target: NtNBCe1-A (cytoplasmic N-terminal domain of the electrogenic Na/HCO3 cotransporter NBCe1-A, SLC4A4) (UniProt Q9Y6R1); test: Size-exclusion chromatography with multi-angle light scattering and refractive index detection (MALS-SEC); settings: pH 11.5; 150mM NaCl; 50mM Tris at every pH analysed
# [4] = target: the molecule itself; test: SEC-MALS; neutral pH, 0 mM against 10 mM bisulfite
# [5] = target: the molecule itself; test: SEC-MALS; ~2 mg/ml (0.5 ml) on Superdex-200 HR 10/30; 50 mM Tris, 150 mM NaCl, 1 mM TCEP; neutral pH; monomer to dimer
Molecule,average hydrodynamic radius (DLS) [1],average hydrodynamic radius (DLS) [2],average molar mass (MALS-SEC) [3],fold increase of high-order self-associations with bisulfite against none [4] [fold],stoichiometry N [5]
"NtNBCe1-A (cytoplasmic N-terminal domain of the electrogenic Na/HCO3 cotransporter NBCe1-A, SLC4A4)","4.6 nm (theoretical 4.2 nm for pure dimers); monodisperse, Pd < 10%","increase to 5.0 nm at neutral pH (theoretical 5.6 nm for pure tetramers), consistent with a small amount of dimer-dimer interactions",42.6 kDa (theoretical monomer 40.6 kDa); monomer predominates,,
B1,,,,~2,2
